Test results taken from patent US20100196385A1.

Columns and labels:
[1] = biological target: DLL4 extracellular domain (R&D systems, catalog #1506-D4/CF) (UniProt Q9NR61); experiment: cell-based or functional assay
human Dll1 (human) [2] = biological target: human Dll1 (human) (UniProt O00548); experiment: FACS, 1 µg/ml, 293T cells with human Dll1
human Dll1 (human) [3] = biological target: human Dll1 (human) (UniProt O00548); experiment: FACS, 5 µg/ml, 293T cells with human Dll1
human Dll1 (human) [4] = biological target: human Dll1 (human) (UniProt O00548); experiment: FACS, 0.2 µg/ml, 293T cells with human Dll1
human Dll1 (human) [5] = biological target: human Dll1 (human) (UniProt O00548); experiment: FACS, 1 µg/ml, 293T cells with human Dll1 vs mock
human Dll1 (human) [6] = biological target: human Dll1 (human) (UniProt O00548); experiment: FACS, 5 µg/ml, 293T cells with human Dll1 vs mock
human Dll1 (human) [7] = biological target: human Dll1 (human) (UniProt O00548); experiment: FACS, 0.2 µg/ml, 293T cells with human Dll1 vs mock
human Jagged1 (human) [8] = biological target: human Jagged1 (human) (UniProt P78504); experiment: FACS, 1 µg/ml, 293T cells with human Jagged1
Sequence of human Jagged1 (human) (P78504 34-1218): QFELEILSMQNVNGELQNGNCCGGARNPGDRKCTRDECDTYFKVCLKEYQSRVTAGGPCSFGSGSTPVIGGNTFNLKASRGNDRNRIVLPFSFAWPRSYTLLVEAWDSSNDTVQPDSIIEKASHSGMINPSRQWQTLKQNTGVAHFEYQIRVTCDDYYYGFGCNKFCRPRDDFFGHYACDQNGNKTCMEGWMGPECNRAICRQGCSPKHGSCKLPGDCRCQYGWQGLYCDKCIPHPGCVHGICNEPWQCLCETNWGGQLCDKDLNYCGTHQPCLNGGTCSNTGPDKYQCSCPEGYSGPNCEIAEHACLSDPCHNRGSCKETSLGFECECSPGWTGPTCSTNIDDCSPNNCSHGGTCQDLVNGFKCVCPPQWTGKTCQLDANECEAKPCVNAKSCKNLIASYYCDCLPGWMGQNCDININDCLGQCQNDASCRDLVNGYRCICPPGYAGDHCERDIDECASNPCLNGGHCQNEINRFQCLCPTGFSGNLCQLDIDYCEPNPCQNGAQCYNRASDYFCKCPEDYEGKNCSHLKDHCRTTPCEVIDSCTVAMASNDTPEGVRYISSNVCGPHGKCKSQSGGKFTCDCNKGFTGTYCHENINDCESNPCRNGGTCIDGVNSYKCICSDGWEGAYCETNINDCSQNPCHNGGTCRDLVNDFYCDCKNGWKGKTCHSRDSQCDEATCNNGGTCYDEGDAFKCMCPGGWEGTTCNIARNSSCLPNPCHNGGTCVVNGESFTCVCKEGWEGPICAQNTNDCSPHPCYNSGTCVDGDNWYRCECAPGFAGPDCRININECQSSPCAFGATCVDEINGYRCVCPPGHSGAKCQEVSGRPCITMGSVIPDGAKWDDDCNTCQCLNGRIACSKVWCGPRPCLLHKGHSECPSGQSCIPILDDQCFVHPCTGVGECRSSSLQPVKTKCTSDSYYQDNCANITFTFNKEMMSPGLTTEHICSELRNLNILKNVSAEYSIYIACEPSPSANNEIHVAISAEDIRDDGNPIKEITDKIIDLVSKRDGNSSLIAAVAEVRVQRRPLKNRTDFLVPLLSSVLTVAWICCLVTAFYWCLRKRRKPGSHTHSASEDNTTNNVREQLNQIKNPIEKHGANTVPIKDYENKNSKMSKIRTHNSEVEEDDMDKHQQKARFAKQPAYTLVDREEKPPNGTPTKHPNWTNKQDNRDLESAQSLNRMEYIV

human Jagged1 (human) [9] = biological target: human Jagged1 (human) (UniProt P78504); experiment: FACS, 5 µg/ml, 293T cells with human Jagged1
human Jagged1 (human) [10] = biological target: human Jagged1 (human) (UniProt P78504); experiment: FACS, 0.2 µg/ml, 293T cells with human Jagged1
human Jagged1 (human) [11] = biological target: human Jagged1 (human) (UniProt P78504); experiment: FACS, 1 µg/ml, 293T cells with human Jagged1 vs mock
human Jagged1 (human) [12] = biological target: human Jagged1 (human) (UniProt P78504); experiment: FACS, 5 µg/ml, 293T cells with human Jagged1 vs mock
human Jagged1 (human) [13] = biological target: human Jagged1 (human) (UniProt P78504); experiment: FACS, 0.2 µg/ml, 293T cells with human Jagged1 vs mock

Sequence of human Dll1 (human) (O00548 18-723): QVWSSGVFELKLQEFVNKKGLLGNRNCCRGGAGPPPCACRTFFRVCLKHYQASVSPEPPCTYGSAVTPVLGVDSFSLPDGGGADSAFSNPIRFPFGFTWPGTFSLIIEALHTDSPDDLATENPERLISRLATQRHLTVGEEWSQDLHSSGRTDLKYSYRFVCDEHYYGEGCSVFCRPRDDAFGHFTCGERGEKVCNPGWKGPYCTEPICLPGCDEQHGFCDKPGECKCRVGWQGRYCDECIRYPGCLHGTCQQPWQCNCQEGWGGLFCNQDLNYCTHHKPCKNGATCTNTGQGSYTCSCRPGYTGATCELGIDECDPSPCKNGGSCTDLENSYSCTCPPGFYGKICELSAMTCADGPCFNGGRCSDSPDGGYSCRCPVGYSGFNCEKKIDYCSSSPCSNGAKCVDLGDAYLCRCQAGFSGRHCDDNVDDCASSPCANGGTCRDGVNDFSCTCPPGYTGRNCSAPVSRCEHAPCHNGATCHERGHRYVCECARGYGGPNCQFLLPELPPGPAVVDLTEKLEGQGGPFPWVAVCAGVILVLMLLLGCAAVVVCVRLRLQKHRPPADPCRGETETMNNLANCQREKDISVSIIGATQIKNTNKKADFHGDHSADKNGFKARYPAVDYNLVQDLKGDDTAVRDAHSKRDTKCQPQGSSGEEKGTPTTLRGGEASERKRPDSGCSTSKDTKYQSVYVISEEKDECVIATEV
Sequence of DLL4 extracellular domain (R&D systems, catalog #1506-D4/CF) (Q9NR61 27-529 limits assumed): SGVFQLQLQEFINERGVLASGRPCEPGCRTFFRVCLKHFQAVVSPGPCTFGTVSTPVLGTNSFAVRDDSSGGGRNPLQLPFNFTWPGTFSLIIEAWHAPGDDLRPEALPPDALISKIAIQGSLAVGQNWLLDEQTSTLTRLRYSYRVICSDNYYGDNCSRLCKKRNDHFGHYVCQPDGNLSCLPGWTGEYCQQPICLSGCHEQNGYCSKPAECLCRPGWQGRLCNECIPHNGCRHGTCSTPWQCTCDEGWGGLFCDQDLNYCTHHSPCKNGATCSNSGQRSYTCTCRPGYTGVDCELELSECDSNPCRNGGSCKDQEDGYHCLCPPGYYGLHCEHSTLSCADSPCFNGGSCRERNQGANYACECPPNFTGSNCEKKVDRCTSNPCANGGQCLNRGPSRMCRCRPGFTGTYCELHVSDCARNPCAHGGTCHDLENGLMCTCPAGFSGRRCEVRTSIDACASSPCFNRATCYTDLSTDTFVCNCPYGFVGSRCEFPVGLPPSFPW

Substance | % inhibition 1 µg/ml, AVERAGE (HUVEC proliferation on coated DLL4) [1] | % inhibition 1 µg/ml, N = 1 (HUVEC proliferation on coated DLL4) [1] | % inhibition 1 µg/ml, N = 2 (HUVEC proliferation on coated DLL4) [1] | % inhibition 10 µg/ml, AVERAGE (HUVEC proliferation on coated DLL4) [1] | % inhibition 10 µg/ml, N = 1 (HUVEC proliferation on coated DLL4) [1] | % inhibition 10 µg/ml, N = 2 (HUVEC proliferation on coated DLL4) [1] | further results
Control IgG2 (antibody) | 9% | 18% | 0% | 10% | 11% | 9% | 
Control IgG4 (antibody) | 11% | 14% | 8% | 2% | 6% | -3% | 
Goat anti-human Dll1 antibody (R&D systems cat #AF1818) |  |  |  |  |  |  | Dll1/293T X Geo mean (human Dll1 (human) [2]): 1240; Dll1/293T X Geo mean (human Dll1 (human) [3]): 1840; Dll1/293T X Geo mean (human Dll1 (human) [4]): 565; Dll1/mock ratio (human Dll1 (human) [5]): 6.33; Dll1/mock ratio (human Dll1 (human) [6]): 7.68; Dll1/mock ratio (human Dll1 (human) [7]): 6.94
Mouse anti-human Jagged 1 antibody (R&D systems, catalog #mAB1277) |  |  |  |  |  |  | Jagged1/293T X Geo mean (human Jagged1 (human) [8]): 119; Jagged1/293T X Geo mean (human Jagged1 (human) [9]): 196; Jagged1/293T X Geo mean (human Jagged1 (human) [10]): 50.7; Jagged1/mock ratio (human Jagged1 (human) [11]): 3.94; Jagged1/mock ratio (human Jagged1 (human) [12]): 4.29; Jagged1/mock ratio (human Jagged1 (human) [13]): 3.38
